This is an account of results in patent US7399833 (dated 2008).

The labels stand for the following.
T1: Mpl-X (the soluble extra-cellular domain of the Mpl receptor) (human, UniProt P40238 26-491, coupled to CNBr activated Sepharose resin)
T1 construct: extracellular domain; also called hu-MPL-X
T1 sequence (looked up): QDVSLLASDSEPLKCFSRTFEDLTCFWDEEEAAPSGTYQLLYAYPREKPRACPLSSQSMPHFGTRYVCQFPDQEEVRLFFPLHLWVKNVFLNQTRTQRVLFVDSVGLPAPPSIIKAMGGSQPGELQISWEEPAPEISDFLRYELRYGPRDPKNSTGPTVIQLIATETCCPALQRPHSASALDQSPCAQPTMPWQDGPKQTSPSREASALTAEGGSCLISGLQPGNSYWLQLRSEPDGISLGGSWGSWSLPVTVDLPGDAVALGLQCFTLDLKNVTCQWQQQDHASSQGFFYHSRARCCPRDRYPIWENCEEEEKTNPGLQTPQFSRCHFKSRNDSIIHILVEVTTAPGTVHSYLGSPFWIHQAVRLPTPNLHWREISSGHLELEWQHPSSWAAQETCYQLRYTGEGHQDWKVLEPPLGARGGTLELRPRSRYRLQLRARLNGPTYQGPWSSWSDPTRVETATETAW

B1: CHO-derived MGDF 1-163 (ligand)
chain: SPAPPACDLRVLSKLLRDSHVLHSRLSQCPEVHPLPTPVLLPAVDFSLGEWKTQMEETKAQDILGAVTLLLEGVMAARGQLGPTCLSSLLGQLSGQVRLLLGALQSLLGTQLPPQGRTTAHKDPNAIFLSFQHLLRGKVRFLMLVGGSTLCVRRAPPTTAVPS
modifications: CHO-expressed material carries O-linked carbohydrate, which the letters do not show.
notes: see the note on m1; also called r-HuMGDF 1-163 (CHO)
B2: CHO-derived MGDF 1-153 (ligand)
chain: SPAPPACDLRVLSKLLRDSHVLHSRLSQCPEVHPLPTPVLLPAVDFSLGEWKTQMEETKAQDILGAVTLLLEGVMAARGQLGPTCLSSLLGQLSGQVRLLLGALQSLLGTQLPPQGRTTAHKDPNAIFLSFQHLLRGKVRFLMLVGGSTLCVR
modifications: CHO-expressed material carries O-linked carbohydrate, which the letters do not show.
notes: see the note on m1; also called r-HuMGDF 1-153 (CHO)

Where “and” joins values, the source holds several entries; their conditions need not be identical. Equal entries are not always repeated.

In one experiment the target is full length human Mpl receptor on 32D-MPL cells (human) (UniProt P40238). As to the kind of experiment: cell-based or functional assay.
For [Asn25] MGDF 1-174 (ligand), the In Vitro Activity (units/ml), 32D-MPL cell proliferation is 636 units/ml and the Specific Activity (units/ng), 32D-MPL cell proliferation / MGDF ELISA was determined as 344 units/ng.

Molecule “[Asn30, Thr32, Asn120, Thr122] MGDF 1-174 (ligand)” came in with an In Vitro Activity (units/ml), 32D-MPL cell proliferation of 6420 units/ml and a Specific Activity (units/ng), 32D-MPL cell proliferation / MGDF ELISA of 247 units/ng.

As to [Asn30, Thr32] MGDF 1-174 (ligand), the In Vitro Activity (units/ml), 32D-MPL cell proliferation was determined as 8830 units/ml and the Specific Activity (units/ng), 32D-MPL cell proliferation / MGDF ELISA was found to be 232 units/ng.

[Asn38, Thr40] MGDF 1-174 (ligand) registered an In Vitro Activity (units/ml), 32D-MPL cell proliferation of under 10 units/ml and a Specific Activity (units/ng), 32D-MPL cell proliferation / MGDF ELISA of under 8 units/ng. Taken in the same sequence, the figures for [Asn53, Thr55] MGDF 1-174 (ligand) were 18000 units/ml and 269 units/ng. The like results for [Asn58, Thr60] MGDF 1-174 (ligand) were, in that order, 4850 units/ml and 271 units/ng.

For the molecule [Asn82, Ala83] MGDF 1-174 (ligand), the In Vitro Activity (units/ml), 32D-MPL cell proliferation was 2660 units/ml and 3080 units/ml; the Specific Activity (units/ng), 32D-MPL cell proliferation / MGDF ELISA is 443 units/ng and 655 units/ng. Take [Asn86] MGDF 1-174 (ligand): the In Vitro Activity (units/ml), 32D-MPL cell proliferation is under 10 units/ml and the Specific Activity (units/ng), 32D-MPL cell proliferation / MGDF ELISA was under 22 units/ng. In the case of [Asn92] MGDF 1-174 (ligand), the In Vitro Activity (units/ml), 32D-MPL cell proliferation was 1970 units/ml and the Specific Activity (units/ng), 32D-MPL cell proliferation / MGDF ELISA was found to be 188 units/ng. As to [Asn120, Thr122] MGDF 1-174 (ligand), the In Vitro Activity (units/ml), 32D-MPL cell proliferation was 5940 units/ml and 9690 units/ml; the Specific Activity (units/ng), 32D-MPL cell proliferation / MGDF ELISA was 291 units/ng and 288 units/ng.

“[Ser36, Asn38, Thr40] MGDF 1-174 (ligand)” yielded an In Vitro Activity (units/ml), 32D-MPL cell proliferation of under 10 units/ml and a Specific Activity (units/ng), 32D-MPL cell proliferation / MGDF ELISA of under 8 units/ng.

The next experiment deals with T1, Mpl-X (the soluble extra-cellular …). Put plainly: Mpl-receptor affinity chromatography.
As for B1, the binding result is listed as “binds”. Consider B2, for which the binding result was “binds”.
